PMC3017119, “Structural Basis for the Recognition of Cellular mRNA Export Factor REF by Herpes Viral Proteins HSV-1 ICP27 and HVS ORF57” (PLoS Pathogens, 2011)
Changes are numbered by the printed parent chain. In names and notes the source's numbering stands.

B1: ICP27^1–138 (recombinant, for NMR) (domain or fragment)
chain: MATDIDMLIDLGLDLSDSDLDEDPPEPAESRRDDLESDSSGECSSSDEDMEDPHGEDGPEPILDAARPAVRPSRPEDPGVPSTQTPRPTERQGPNDPQPAPHSVWSRLGARRPSCSPEQHGGKVARLQPPPTKAQPAR
notes: HSV-1 ICP27, residues 1-138
B2: HVS ORF57^8–120 (recombinant, for NMR) (domain or fragment)
chain: GISSDDDFDSSDSSSDEEESDTSPQIMKSDVTMASPPSTPEPSPDVSASTSNLKRERQRSPITWEHQSPLSRVYRSPSPMRFGKRPRISSNSTSRSCKTSWADRVREAAAQRR
B3: REF^54–155 (recombinant, for NMR) (domain or fragment)
chain: not shown
notes: 15N- or 13C/15N-labelled or unlabelled, by experiment; also called Δ53N
B4: ICP27^103–138 (peptide)
chain: GPLGSVWSRLGARRPSCSPEQHGGKVARLQPPPTKAQPAR
notes: remainder of the PreScission protease cleavage site; HSV-1 ICP27, residues 103-138; also called WT-ICP27^103–138; ICP27^103–138 WT peptide; source: expressed as GST-fusion from pGEX-6P-1, cleaved by PreScission protease on GSH resin, purified (Sephacryl S-100 HR); not shown: GST, N-terminal, cleaved
B5: ICP27^103–138 S114E (peptide)
chain: B4 chain with S16E
notes: remainder of the PreScission protease cleavage site; HSV-1 ICP27, residues 103-138 with S114E (mimic of phosphoserine 114); source: expressed as GST-fusion from pGEX-6P-1, cleaved by PreScission protease on GSH resin, purified (Sephacryl S-100 HR); not shown: GST, N-terminal, cleaved
B6: ICP27^103–110 (peptide)
peptide: SVWSRLGA
notes: HSV-1 ICP27, residues 103-110; the dash in the printed line is an alignment gap; also called WT ICP27^103–110 peptide; source: synthetic peptide (Peptide Protein Research Ltd)
B7: ICP27^103–112 (peptide)
peptide: SVWSRLGARR
notes: HSV-1 ICP27, residues 103-112; the dash in the printed line is an alignment gap; also called WT ICP27^103–112 peptide; source: synthetic peptide (Peptide Protein Research Ltd)
B8: HVS ORF57^103–120 (peptide)
peptide: SCKTSWADRVREAAAQRR
notes: also called WT HVS-ORF57^103–120; source: synthetic peptide (Peptide Protein Research Ltd)
B9: HVS ORF57^105–115 (peptide)
peptide: KTSWADRVREA
notes: also called WT HVS-ORF57^105–115; WT-ORF57^105–115; source: synthetic peptide (Peptide Protein Research Ltd)
B10: VZV ORF4^108–119 (peptide)
peptide: TGYARIERGHRR
notes: also called VZV-ORF4^108–119 peptide; source: synthetic peptide (Peptide Protein Research Ltd)
B11: KSHV ORF57^100–110 (peptide)
peptide: NRYGKKIKFGT
notes: also called KSHV-ORF57^100–110 peptide; source: synthetic peptide (Peptide Protein Research Ltd)

Key:
Conditions in all cases: both partners purified
[1] = biological target: REF^1–155 (recombinant, for NMR) (murine, UniProt Q9JJW6 1-155); assay: NMR titration
[2] = biological target: B1; assay: NMR titration
[3] = biological target: B2; assay: NMR titration; […]; 30°C; […], pH 6.2
[4] = biological target: T1, ICP27^103–112 W105A (Herpes simplex virus 1, W105A (stands in the printed letters)); assay: NMR titration; […]; 30°C; […], pH 6.2
T1 construct: also called mutant peptide W105A; source: synthetic peptide (Peptide Protein Research Ltd)

[5] = biological target: T2, ICP27^103–112 R107A (Herpes simplex virus 1, R107A (stands in the printed letters)); assay: NMR titration; […]; 30°C; […], pH 6.2
T2 construct: source: synthetic peptide (Peptide Protein Research Ltd)

[6] = biological target: T3, ICP27^103–112 L108A (Herpes simplex virus 1, L108A (stands in the printed letters)); assay: NMR titration; […]; 30°C; […], pH 6.2
T3 construct: source: synthetic peptide (Peptide Protein Research Ltd)

[7] = biological target: T4, HVS ORF57^103–120 W108A (Herpesvirus Saimiri, W108A (stands in the printed letters)); assay: NMR titration; […]; 30°C; […], pH 6.2
T4 construct: source: synthetic peptide (Peptide Protein Research Ltd)

[8] = biological target: T5, HVS ORF57^103–120 R111A (Herpesvirus Saimiri, R111A (stands in the printed letters)); assay: NMR titration; […]; 30°C; […], pH 6.2
T5 construct: source: synthetic peptide (Peptide Protein Research Ltd)

[9] = biological target: T6, HVS ORF57^103–120 V112A (Herpesvirus Saimiri, V112A (stands in the printed letters)); assay: NMR titration; […]; 30°C; […], pH 6.2
T6 construct: source: synthetic peptide (Peptide Protein Research Ltd)

[10] = biological target: B3; assay: NMR titration; […]; 30°C; […], pH 6.2

Q: Does B1 bind [1]?
A: Result: binds

Q: Does B2 bind [1]?
A: Result: binds

Q: Does B3 bind [2]?
A: Result: binds

Q: And the Kd [3]?
A: The Kd was 78 ± 12 µM.

Q: What about the Kd [4] of the same binder?
A: The Kd was 550 ± 210 µM.

Q: And the Kd [5]?
A: Its Kd is greater than 10000 µM.

Q: And the Kd [6]?
A: The Kd was greater than 5000 µM.

Q: And the Kd [7]?
A: The Kd was greater than 7500 µM.

Q: And the Kd [8]?
A: The Kd was 254 ± 50 µM.

Q: And the Kd [9]?
A: The Kd was 156 ± 32 µM.

Q: B4 was tested. Which Kd [10] did it give?
A: Its Kd is 28 ± 8.7 µM.

Q: For B5, which Kd [10] is on record?
A: The Kd was 17 ± 7.9 µM.

Q: For B6, which Kd [10] is on record?
A: Its Kd is 25 ± 7 µM.

Q: B7 was tested. Which Kd [10] did it give?
A: The Kd was 99 ± 30 µM.

Q: With B8 as the binder, how does the Kd [10] read?
A: The Kd was 45 ± 15 µM.

Q: For B9, which Kd [10] is on record?
A: Its Kd is greater than 1000 µM.

Q: For B10, which Kd [10] is on record?
A: Its Kd is greater than 1000 µM.

Q: Which Kd [10] does the source give for B11 here?
A: The Kd was greater than 100000 µM.
